Results published in paper PMC3482105.

Key:
GCaMP5H = assay: crystal structure
GCaMP2-LIA = assay: crystal structure

Row | Substance | stoichiometry N (GCaMP5H) | stoichiometry N (GCaMP2-LIA)
1 | GCaMP5H | 2 | 
2 | GCaMP2-LIA |  | 2
